Here are results for one molecule from US20260151508A1 (BEAM THERAPEUTICS, published 2026).

In test [1] the target is T1, PiM (wild type) human alpha-1 antitrypsin (AAT) protein, bacterially expressed (human, UniProt P01009 25-418).
T1 construct: The signal peptide is left out here; also called PiM (WT) AAT; wild-type AAT
Briefly: in vitro neutrophil elastase binding assay, bacterially expressed AAT.

For test [2], the target named is T2, PiM+Bystander (D365G) human alpha-1 antitrypsin (AAT) protein, bacterially expressed (human, UniProt P01009 25-418).
T2 construct: Wild-type AAT altered to include D365G; also called D365G AAT protein; AAT protein with a D365G alteration
The test is described as above.

T1 sequence (P01009 25-418): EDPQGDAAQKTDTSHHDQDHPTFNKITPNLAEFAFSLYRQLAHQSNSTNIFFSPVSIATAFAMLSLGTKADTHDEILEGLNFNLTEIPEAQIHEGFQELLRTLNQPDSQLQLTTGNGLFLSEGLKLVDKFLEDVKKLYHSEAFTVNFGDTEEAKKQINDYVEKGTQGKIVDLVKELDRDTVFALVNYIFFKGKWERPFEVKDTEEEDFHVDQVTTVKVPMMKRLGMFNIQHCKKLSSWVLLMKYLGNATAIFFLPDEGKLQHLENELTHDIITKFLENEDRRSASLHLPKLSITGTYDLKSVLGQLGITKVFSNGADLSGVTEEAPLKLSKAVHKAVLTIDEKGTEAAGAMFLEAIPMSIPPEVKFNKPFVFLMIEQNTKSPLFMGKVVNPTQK
T2 sequence (P01009 25-418 D365G): as the sequence (P01009 25-418) above, with D341G counted along it

B1: human neutrophil elastase (enzyme, UniProt P08246 30-247, looked up)
chain: IVGGRRARPHAWPFMVSLQLRGGHFCGATLIAPNFVMSAAHCVANVNVRAVRVVLGAHNLSRREPTRQVFAVQRIFENGYDPVNLLNDIVILQLNGSATINANVQVAQLPAQGRRLGNGVQCLAMGWGLLGRNRGIASVLQELNVTVVTSLCRRSNVCTLVRGRQAGVCFGDSGSPLVCNGLIHGIASFVRGGCASGLYPDAFAPVAQFVNWIDSIIQ
notes: also called HNE
B1: the binding result in test [1] and in test [2] was “binds” each time.
